# Measurements from patent US20110086806A1 (published 2011).
# T1: recombinant human IL-23R/Fc chimera (R&D Systems) (human, UniProt Q5VWK5 24-355)
# T1 construct: Bought; also called rhIL23RFc
# T1 sequence (looked up): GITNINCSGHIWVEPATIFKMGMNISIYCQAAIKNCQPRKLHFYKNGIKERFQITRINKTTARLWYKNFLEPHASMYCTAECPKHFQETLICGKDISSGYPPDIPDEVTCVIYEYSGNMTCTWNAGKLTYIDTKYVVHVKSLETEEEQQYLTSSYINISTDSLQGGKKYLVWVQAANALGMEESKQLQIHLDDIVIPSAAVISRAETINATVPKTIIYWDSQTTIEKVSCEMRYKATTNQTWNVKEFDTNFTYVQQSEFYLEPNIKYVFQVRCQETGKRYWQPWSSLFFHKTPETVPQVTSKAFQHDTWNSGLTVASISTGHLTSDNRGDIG
# Biological target: T1, recombinant human IL-23R/Fc chimera …
# Test: competition ELISA vs IL-23
# Protocol: Assays were performed generally as follows. Individual wells in Immulon HB2 plates were incubated overnight at 4° C. with 100 μL PBS containing 100 ng of an anti-human IgG Fc (R&D MAB 110 clone 97924). Plates were washed five times with PBS/0.05% Tween 20, and wells were incubated for 1.5 h at RT with 100 μL each of PBS containing 50 ng of recombinant human IL-23R/Fc. […] Competitor was included at a final concentration of 1 μg/mL. After incubation, plates were washed as described and wells were incubated for 40 min at RT with 100 μL each of PBS containing a 1:5000 dilution of streptavidin-HRP conjugate (Pierce catalog no. 21130). After washing, wells were incubated with 100 μL each of TMB (BioFX Lab catalog no. TMBH-1000-0) for up to 30 min at RT. Reactions were stopped with an equal volume of 0.2 M sulfuric acid.
row,Binder,Ratio IC50 to 056-53.H4E IC50
1,"105-08-1A7 ATRIMER complex (designed binder, ATRIMER complex: homotrimer of three copies of this chain, joined by the tetranectin coiled coil, not shown: C-terminal tag: Myc/His (pANA4) or HA-StrepII (pANA10)) EPPTQKPKKIVNAKKDVVNTKMFEELKSRLDTLAQEVALLKEQQALQTVCLKGTKVHMKCFLAFTQTKTFHEASEDCISRGGTLSTPQTGSENDALYEYLRQSVGNEAEIWLGLNGSVRTNTWVDMTGARIAYKNWETEITAQPDGGFGYFGENCAVLSGAANGKWFDKRCRDQLPYICQFGIV",2.9
2,"105-08-1A10 ATRIMER complex (designed binder, not shown: C-terminal tag: His/Myc (pANA4) or HA-StrepII (pANA10)) EPPTQKPKKIVNAKKDVVNTKMFEELKSRLDTLAQEVALLKEQQALQTVCLKGTKVHMKCFLAFTQTKTFHEASEDCISRGGTLSTPQTGSENDALYEYLRQSVGNEAEIWLGLNGSSITDTWVDMTGARIAYKNWETEITAQPDGGWGYFGENCAVLSGAANGKWFDKRCRDQLPYICQFGIV",4.3

# Biological target: T1, recombinant human IL-23R/Fc chimera …
# Test: SPR
# Protocol: A Biacore 3000 biosensor (GE Healthcare) was used to evaluate the interaction of human IL-23R and receptor binders. Immobilization of an anti-human IgG Fc antibody (GE Healthcare) to the CM5 chip (GE Healthcare) was performed using standard amine coupling chemistry, and this modified surface was used to capture a recombinant human IL-23R/Fc fusion protein (R&D Systems). A low-density receptor surface, less than 200 RU, was used for all of the analyses. ATRIMER™ polypeptide complex dilutions (1-500 nM) were injected over the IL-23R surface at 30 μl/min and kinetic constants were derived from the sensorgram data using the Biaevaluation software (version 3.1, GE Healthcare). Data collection was 3 minutes for the association and 5 minutes for dissociation. The anti-human IgG surface was regenerated with a 30s pulse of 3M magnesium chloride. All sensorgrams were double-referenced against an activated and blocked flow-cell as well as buffer injections.
Binder,Ka [M⁻¹],Kd [nM],koff [s⁻¹],kon [M⁻¹ s⁻¹]
"001-69.4D4 monomeric CTLD (designed binder, C-terminal tag not specified) ALQTVCLKGTKVHMKCFLAFTQTKTFHEASEDCISRGGTLSTPQTGSENDALYEYLRQSVGNEAEIWLGLNGSVRGRTWVDMTGARIAYKNWETEITAQPDGGIGVWGENCAVLSGAANGKWFDKRCRDQLPYICQFGIV",6.76e+06,148,0.00419,28300
001-89.C7F monomeric CTLD (designed binder) ALQTVCLKGTKVHMKCFLAFTQTKTFHEASEDCISRGGTLSTPQTGSENDALYEYLRQSVGNEAEIWLGLNGSLLTGLWVDMTGARIAYKNWETEITAQPDGGYGAWGENCAVLSGAANGKWFDKRCRDQLPYICQFGIV,6.75e+06,148,0.00531,35800
"001-69.4F5 monomeric CTLD (designed binder, C-terminal tag not specified; not shown: Also the vector's N-terminal AGGGS after the pelB signal) ALQTVCLKGTKVHMKCFLAFTQTKTFHEASEDCISRGGTLSTPQTGSENDALYEYLRQSVGNEAEIWLGLNVLGWRREWVDMTGARIAYKNWETEITAQPDGGLVMPMENCAVLSGAANGKWFDKRCRDQLPYICQFGIV",4.12e+06,243,0.00571,23500
"001-69.4G8 monomeric CTLD (designed binder, C-terminal tag not specified; not shown: C-terminal tag: 6xHis (pANA1), HA-His (pANA3) or HA-StrepII (pANA12)) ALQTVCLKGTKVHMKCFLAFTQTKTFHEASEDCISRGGTLSTPQTGSENDALYEYLRQSVGNEAEIWLGLNGSRRSGVWVDMTGARIAYKNWETEITAQPDGGFGVFGENCAVLSGAANGKWFDKRCRDQLPYICQFGIV",1.83e+07,54,0.00783,143000
"001-69.3C2 monomeric CTLD (designed binder, C-terminal tag not specified) ALQTVCLKGTKVHMKCFLAFTQTKTFHEASEDCISRGGTLSTPQTGSENDALYEYLRQSVGNEAEIWLGLNTNVTRTLWVDMTGARIAYKNWETEITAQPDGGLGVWGENCAVLSGAANGKWFDKRCRDQLPYICQFGIV",5.39e+06,186,0.00741,39900
"001-87.A5F monomeric CTLD (designed binder, not shown: small tags and cut ends, C-terminal tag not specified) ALQTVCLKGTKVHMKCFLAFTQTKTFHEASEDCISRGGTLSTPQTGSENDALYEYLRQSVGNEAEIWLGLNGSVRSATWVDMTGARIAYKNWETEITAQPDGGFGYFGENCAVLSGAANGKWFDKRCRDQLPYICQFGIV",4.11e+07,24.3,0.00415,170000
"001-87.A8E monomeric CTLD (designed binder, C-terminal tag not specified) ALQTVCLKGTKVHMKCFLAFTQTKTFHEASEDCISRGGTLSTPQTGSENDALYEYLRQSVGNEAEIWLGLNANPAQDLWVDMTGARIAYKNWETEITAQPDGGFGVWGENCAVLSGAANGKWFDKRCRDQLPYICQFGIV",7.09e+06,141,0.00757,53700
"001-87.A9E monomeric CTLD (designed binder, C-terminal tag not specified) ALQTVCLKGTKVHMKCFLAFTQTKTFHEASEDCISRGGTLSTPQTGSENDALYEYLRQSVGNEAEIWLGLNGSALTNTWVDMTGARIAYKNWETEITAQPDGGLGYWGENCAVLSGAANGKWFDKRCRDQLPYICQFGIV",9.29e+06,108,0.0041,38100
"001-89.C12E monomeric CTLD (designed binder, C-terminal tag not specified) ALQTVCLKGTKVHMKCFLAFTQTKTFHEASEDCISRGGTLSTPQTGSENDALYEYLRQSVGNEAEIWLGLNWTKRTALWVDMTGARIAYKNWETEITAQPDGGMFGMGENCAVLSGAANGKWFDKRCRDQLPYICQFGIV",5.62e+06,178,0.0074,41600
"001-69.4E5 monomeric CTLD (designed binder, C-terminal tag not specified; not shown: Also the vector's N-terminal AGGGS after the pelB signal) ALQTVCLKGTKVHMKCFLAFTQTKTFHEASEDCISRGGTLSTPQTGSENDALYEYLRQSVGNEAEIWLGLNGNPSGSVWVDMTGARIAYKNWETEITAQPDGGYGVWGENCAVLSGAANGKWFDKRCRDQLPYICQFGIV",2.82e+06,355,0.0161,45400
"001-87.A4A monomeric CTLD (designed binder, C-terminal tag not specified) ALQTVCLKGTKVHMKCFLAFTQTKTFHEASEDCISRGGTLSTPQTGSENDALYEYLRQSVGNEAEIWLGLNWTLAKNLWVDMTGARIAYKNWETEITAQPDGGLFGRGENCAVLSGAANGKWFDKRCRDQLPYICQFGIV",5.18e+06,193,0.0229,118000
"001-89.C3C monomeric CTLD (designed binder, C-terminal tag not specified) ALQTVCLKGTKVHMKCFLAFTQTKTFHEASEDCISRGGTLSTPQTGSENDALYEYLRQSVGNEAEIWLGLNANRRRTMWVDMTGARIAYKNWETEITAQPDGGMGVWGENCAVLSGAANGKWFDKRCRDQLPYICQFGIV",5.34e+06,187,0.0158,84500

# Other lines, results leading:
Ka [M⁻¹],Kd [nM],koff [s⁻¹],kon [M⁻¹ s⁻¹],Binder
1.2e+08,8.34,0.000483,57900,"001-89.C3C ATRIMER complex (designed binder, not shown: C-terminal tag: His/Myc (pANA4) or HA-StrepII (pANA10)) EPPTQKPKKIVNAKKDVVNTKMFEELKSRLDTLAQEVALLKEQQALQTVCLKGTKVHMKCFLAFTQTKTFHEASEDCISRGGTLSTPQTGSENDALYEYLRQSVGNEAEIWLGLNANRRRTMWVDMTGARIAYKNWETEITAQPDGGMGVWGENCAVLSGAANGKWFDKRCRDQLPYICQFGIV"
1.24e+08,8.08,0.000409,50600,"001-87.A4A ATRIMER complex (designed binder, not shown: C-terminal tag: His/Myc (pANA4) or HA-StrepII (pANA10)) EPPTQKPKKIVNAKKDVVNTKMFEELKSRLDTLAQEVALLKEQQALQTVCLKGTKVHMKCFLAFTQTKTFHEASEDCISRGGTLSTPQTGSENDALYEYLRQSVGNEAEIWLGLNWTLAKNLWVDMTGARIAYKNWETEITAQPDGGLFGRGENCAVLSGAANGKWFDKRCRDQLPYICQFGIV"
1.94e+08,5.15,0.000478,92800,"056-41.B9B ATRIMER complex (designed binder, not shown: C-terminal tag: His/Myc (pANA4) or HA-StrepII (pANA10)) EPPTQKPKKIVNAKKDVVNTKMFEELKSRLDTLAQEVALLKEQQALQTVCLKGTKVHMKCFLAFTQTKTFHEASEDCISRGGTLSTPQTGSENDALYEYLRQSVGNEAEIWLGLNAPPDLGLWVDMTGARIAYKNWETEITAQPDGGWGVWGENCAVLSGAANGKWFDKRCRDQLPYICQFGIV"
2.1e+08,4.76,0.000751,158000,"001-69.4G8 ATRIMER complex, mammalian-cell produced (designed binder, not shown: small tags and cut ends, Homotrimer of this chain (ATRIMER complex); produced in HEK293 cells, glycosylation possible., Mammalian-cell produced material; also called 4G8 m; 4G8 TN m) EPPTQKPKKIVNAKKDVVNTKMFEELKSRLDTLAQEVALLKEQQALQTVCLKGTKVHMKCFLAFTQTKTFHEASEDCISRGGTLSTPQTGSENDALYEYLRQSVGNEAEIWLGLNGSRRSGVWVDMTGARIAYKNWETEITAQPDGGFGVFGENCAVLSGAANGKWFDKRCRDQLPYICQFGIV"
2.19e+08,4.57,0.0007,153000,"001-87.A5F ATRIMER complex (designed binder, Homotrimer of this chain (ATRIMER complex)., also called Atrimer A5F; not shown: A possible extra N-terminal Ser from the ompA junction is left out) EPPTQKPKKIVNAKKDVVNTKMFEELKSRLDTLAQEVALLKEQQALQTVCLKGTKVHMKCFLAFTQTKTFHEASEDCISRGGTLSTPQTGSENDALYEYLRQSVGNEAEIWLGLNGSVRSATWVDMTGARIAYKNWETEITAQPDGGFGYFGENCAVLSGAANGKWFDKRCRDQLPYICQFGIV"
4.47e+08,2.24,0.000545,244000,"056-41.B12F ATRIMER complex (designed binder, Homotrimer of this chain (ATRIMER complex)., not shown: A possible extra N-terminal Ser from the ompA junction is left out) EPPTQKPKKIVNAKKDVVNTKMFEELKSRLDTLAQEVALLKEQQALQTVCLKGTKVHMKCFLAFTQTKTFHEASEDCISRGGTLSTPQTGSENDALYEYLRQSVGNEAEIWLGLNGSVRSATWVDMTGARIAYKNWETEITAQPDGGYGVFGENCAVLSGAANGKWFDKRCRDQLPYICQFGIV"
